These results are taken from article PMC9080259, “Dual-cycle immobilization to reuse both enzyme and support by reblossoming enzyme–inorganic hybrid nanoflowers” (RSC Advances, 2018).

Assay in all cases: purified protein
Substrate in data set [1]: CC(=O)Oc1ccc([N+](=O)[O-])cc1
Type of data set: biochemical, Thermomyces lanuginosus. Conditions: free enzyme, PBS 100 mM pH 6.5, 37 °C, substrate of the kinetics taken from the activity assay.

Substrate in data set [2]: CC(=O)Oc1ccc([N+](=O)[O-])cc1
Type of data set: biochemical, Moesziomyces antarcticus. Conditions: free enzyme, PBS 100 mM pH 6.5, 37 °C, substrate of the kinetics taken from the activity assay.

Substrate in data set [3]: CCOC(=O)[C@H](CCCNC(=N)N)NC(=O)c1ccccc1
Conditions: free enzyme, 37 °C, pH not told, substrate of the kinetics taken from the activity assay.

B1: Lipase from Thermomyces lanuginosus (TLL) (Thermomyces lanuginosus) (protein)
chain: EVSQDLFNQFNLFAQYSAAAYCGKNNDAPAGTNITCTGNACPEVEKADATFLYSFEDSGVGDVTGFLALDNTNKLIVLSFRGSRSIENWIGNLNFDLKEINDICSGCRGHDGFTSSWRSVADTLRQKVEDAVREHPDYRVVFTGHSLGGALATVAGADLRGNGYDIDVFSYGAPRVGNRAFAEFLTVQTGGTLYRITHTNDIVPRLPPREFGYSHSSPEYWIKSGTLVPVTRNDIVKIEGIDATGGNNQPNIPDIPAHLWYFGLIGTCL
A word on the Km: it is the concentration of substrate that gives half-maximal velocity. The kcat is the number of substrate molecules converted per active site and unit of time at saturation. For orientation: kcat/Km means the second-order rate constant that governs catalysis at low substrate concentration. Turning to B1, in “purified protein [1]”, the Km was 16.58 ± 0.793 mM, the kcat is 29.3 ± 1.26 s⁻¹ and the specificity constant (kcat/Km) was determined as 1770 ± 8 M⁻¹ s⁻¹.

B2: Lipase B from Candida antarctica (CALB) (Moesziomyces antarcticus) (protein)
chain: LPSGSDPAFSQPKSVLDAGLTCQGASPSSVSKPILLVPGTGTTGPQSFDSNWIPLSTQLGYTPCWISPPPFMLNDTQVNTEYMVNAITALYAGSGNNKLPVLTWSQGGLVAQWGLTFFPSIRSKVDRLMAFAPDYKGTVLAGPLDALAVSAPSVWQQTTGSALTTALRNAGGLTQIVPTTNLYSATDEIVQPQVSNSPLDSSYLFNGKNVQAQAVCGPLFVIDHAGSLTSQFSYVVGRSALRSTTGQARSADYGITDCNPLPANDLTPEQKVAAAALLAPAAAAIVAGPKQNCEPDLMPYARPFAVGKRTCSGIVTP
Take B2: in the data set “purified protein [2]”, the Michaelis constant (Km) is 6.36 ± 0.321 mM, the kcat worked out at 56.8 ± 2.73 s⁻¹ and the kcat/Km stood at 8920 ± 23 M⁻¹ s⁻¹.

B3: Papain (Carica papaya) (protein)
chain: IPEYVDWRQKGAVTPVKNQGSCGSCWAFSAVVTIEGIIKIRTGNLNEYSEQELLDCDRRSYGCNGGYPWSALQLVAQYGIHYRNTYPYEGVQRYCRSREKGPYAAKTDGVRQVQPYNEGALLYSIANQPVSVVLEAAGKDFQLYRGGIFVGPCGNKVDHAVAAVGYGPNYILIKNSWGTGWGENGYIRIKRGTGNSYGVCGLYTSSFYPVKN
For the protein B3, in “purified protein [3]”, the Michaelis-Menten constant (Km) was 1.01 ± 0.05 mM, the kcat was determined as 2.67 s⁻¹ and the specificity constant (kcat/Km) amounted to 2670 M⁻¹ s⁻¹.
